Test results published in patent US20240018252A1.
Changes are numbered by the printed parent chain. In names and notes the source's numbering stands. Several values for one entry are separate records, joined by “and”; a condition that tells them apart may be missing. Equal values may be shown once.

B1: P5A2/h2B4 anti-BCMA/CD3 bispecific (bispecific antibody, V domains shown)
VH 1: EVQLLESGGGLVQPGGSLRLSCAASGFTFSSYAMNWVRQAPGKGLEWVSAISDSGGSTYYADSVKGRFTISRDNSKNTLYLQMNSLRAEDTAVYYCARYWPMDIWGQGTLVTVSS
VL 1: EIVLTQSPGTLSLSPGERATLSCRASQSVSSSYLAWYQQKPGQAPRLLMYDASIRATGIPDRFSGSGSGTDFTLTISRLEPEDFAVYYCQQYGSWPLTFGQGTKVEIK
VH 2: EVQLVESGGGLVQPGGSLRLSCAASGFTFSDYYMTWVRQAPGKGLEWVAFIRNRARGYTSDHNASVKGRFTISRDNAKNSLYLQMNSLRAEDTAVYYCARDRPSYYVLDYWGQGTTVTVSS
VL 2: DIVMTQSPDSLAVSLGERATINCTSSQSLFNVRSRKNYLAWYQQKPGQPPKLLISWASTRESGVPDRFSGSGSGTDFTLTISSLQAEDVAVYYCKQSYDLFTFGSGTKLEIK
B2: Combo_Rd4_0.6nM_C29 LCQ05/K222R Aclys vc0101 (antibody, human IgG1, part only)
heavy: B1 VH 1 with A33P, N35S, S52G, D53G, T58L, Y59P
light: B1 VL 1 with G93Q
chain: GGLLQGPP
modifications: LCQ05 tag; Aclys vc0101 drug conjugate
B3: Combo_Rd4_0.6nM_C29/h2B4 anti-BCMA/CD3 bispecific (bispecific antibody, V domains shown)
VH 1: B1 VH 1 with A33P, N35S, S52G, D53G, T58L, Y59P
VL 1: B1 VL 1 with G93Q
VH 2: B1 VH 2
VL 2: B1 VL 2
B4: A02_Rd4_0.6nM_C01/h2B4 anti-BCMA/CD3 bispecific (bispecific antibody, V domains shown)
VH 1: B1 VH 1 with S52L, D53S
VL 1: B1 VL 1 with A25G, S26G, G93Q
VH 2: B1 VH 2
VL 2: B1 VL 2
B5: A02_Rd4_6nM_C16/h2B4 anti-BCMA/CD3 bispecific (bispecific antibody, V domains shown)
VH 1: B1 VH 1 with S54F
VL 1: B1 VL 1 with S31D, S32L, G93Q, S94T
VH 2: B1 VH 2
VL 2: B1 VL 2
B6: Combo_Rd4_0.6nM_C29 LCQ05/N297Q/K222R Aclys vc0101 (antibody, human IgG1, part only)
heavy: B1 VH 1 with A33P, N35S, S52G, D53G, T58L, Y59P
light: B1 VL 1 with G93Q
chain: GGLLQGPP
modifications: LCQ05 tag; Aclys vc0101 drug conjugate
B7: Combo_Rd4_0.6nM_C29 H7c/N297A/K222R AmPEG6 Aur3377 (antibody, V domains shown)
VH: B1 VH 1 with A33P, N35S, S52G, D53G, T58L, Y59P
VL: B1 VL 1 with G93Q
modifications: H7c tag LLQG (SEQ ID NO: 454), N297A and K222R (EU) in the human IgG1 heavy chain constant region; amino-PEG6-C2-Aur3377 joined by transglutaminase
B8: A02_Rd4_6nM_C16 N297Q/K222R Aclys vc0101 (antibody, V domains shown)
VH: B1 VH 1 with S54F
VL: B1 VL 1 with S31D, S32L, G93Q, S94T
modifications: N297Q and K222R (EU) in the human IgG1 constant region; AcLys-Val-Cit-PABC-Aur0101 joined by transglutaminase to the glutamine at 297
B9: COMBO_Rd4_0.6nM_C22/h2B4 anti-BCMA/CD3 bispecific (bispecific antibody, V domains shown)
VH 1: B1 VH 1 with T58R, Y59W, A97T
VL 1: B1 VL 1 with Q27V, S28R, S32T, G93M, S94K
VH 2: B1 VH 2
VL 2: B1 VL 2
B10: C01_Rd4_6nM_C12/h2B4 anti-BCMA/CD3 bispecific (bispecific antibody, V domains shown)
VH 1: B1 VH 1 with A33P, N35S, S52G, D53G, S57W, T58S, I104S
VL 1: B1 VL 1 with R24W, A25L, S32T, M49I, I54S, T57P, G93S, S94E
VH 2: B1 VH 2
VL 2: B1 VL 2
B11: A02_Rd4_6nM_C01/h2B4 anti-BCMA/CD3 bispecific (bispecific antibody, V domains shown)
VH 1: B1 VH 1 with S52T, D53A, D103S, I104L
VL 1: B1 VL 1 with S31A, S32Y, G93E, S94R
VH 2: B1 VH 2
VL 2: B1 VL 2
B12: P5C1/h2B4 anti-BCMA/CD3 bispecific (bispecific antibody, V domains shown)
VH 1: B1 VH 1 with A33P, N35S, S52G, D53G, I104S
VL 1: B1 VL 1 with S32T, M49I, I54S, T57P, G93S, S94T, W95S
VH 2: B1 VH 2
VL 2: B1 VL 2

Key:
[1] = molecular target: human BCMA (B-Cell Maturation Antigen) on myeloma cells (human) (UniProt Q02223); experiment: cell-based or functional assay
human BCMA (B-Cell Maturation Antigen) on myeloma cells (human), sequence (Q02223 whole entry): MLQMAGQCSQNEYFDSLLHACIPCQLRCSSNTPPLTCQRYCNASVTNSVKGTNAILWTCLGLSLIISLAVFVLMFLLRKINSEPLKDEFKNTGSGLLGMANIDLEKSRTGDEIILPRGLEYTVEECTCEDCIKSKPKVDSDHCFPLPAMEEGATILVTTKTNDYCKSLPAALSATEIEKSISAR

[2] = molecular target: human BCMA on BCMA-expressing tumor cells (human) (UniProt Q02223); experiment: cell-based or functional assay
human BCMA on BCMA-expressing tumor cells (human), sequence (Q02223 whole entry): as above

Binder	EC50, T-cell mediated cytotoxicity (LDH release, 20 h) on KMS12BM (BCMA+) cells [1] [nM]	EC50, T-cell mediated cytotoxicity (LDH release, 20 h) on KMS12PE (BCMA+++) cells [1] [nM]	EC50, T-cell mediated cytotoxicity (LDH release, 20 h) on MOLP8 (MOLP8+) cells [1] [nM]	EC50, cell viability (CellTiter-Glo, 96 h), KMS12BM LUCGFP (+) [2]	EC50, cell viability (CellTiter-Glo, 96 h), L363 LUCGFP (+) [2]	EC50, cell viability (CellTiter-Glo, 96 h), MM1.S LUCGFP (BCMA++) [2]	also measured
B1	1.51	0.371	5.23				EC50 (nM), killing of primary myeloma cells in bone marrow mononuclear cells of patient MM00146 (flow cytometry, day 5) [1]: 0.946 nM
B2				10.9 nM and 1.64 µg/mL	1.67 nM and 0.25 µg/mL	0.13 nM and 0.02 µg/mL	
B3	0.049	0.175	0.201				EC50 (nM), killing of primary myeloma cells, patient MM00146, E:T 1:1 [1]: 0.035 nM; EC50 (nM), killing of primary myeloma cells, patient MM00147, E:T 2:1 [1]: 0.031 nM; EC50 (nM), killing of primary myeloma cells, patient MM00151, E:T 3:1 [1]: 0.02 nM; EC50 (nM), killing of primary myeloma cells, patient MM00152, E:T 1:2 [1]: 0.289 nM
B4	0.078	0.073	0.55				EC50 (nM), killing of primary myeloma cells in bone marrow mononuclear cells of patient MM00146 (flow cytometry, day 5) [1]: 0.064 nM
B5	0.052	0.186	0.315				EC50 (nM), killing of primary myeloma cells in bone marrow mononuclear cells of patient MM00146 (flow cytometry, day 5) [1]: 0.029 nM
B6				1.19 nM and 0.18 µg/mL	1.05 nM and 0.16 µg/mL	0.34 nM and 0.05 µg/mL	
B7				5.01 nM and 0.75 µg/mL	1.36 nM and 0.2 µg/mL	0.3 nM and 0.05 µg/mL	
B8				38.7 nM and 5.81 µg/mL	9.68 nM and 1.45 µg/mL	0.8 nM and 0.12 µg/mL	
B9	0.049	0.115	0.065				
B10	0.415	0.189	0.85				
B11	0.057		0.06				
B12	4.12	0.581					
